According to patent US20220074941A1, “HSP90 COMBINATION THERAPY” (Sloan-Kettering Institute for Cancer Research, priority 2011, published 2022):

Key:
[1] = system: Hsp90 complexes in K562 cell extract; assay: Nano-LC-MS/MS of PU-beads pull-downs; type: binding; details: protein identified in PU-beads pull-down of K562 cell extract, QSTAR-Elite QTof MS
In short: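 Lysates pre-cleared overnight at 4 °C with control beads, then pulled down with PU-beads or control beads; eluted proteins (2% SDS boil) gel-separated and analysed by nano LC-MS/MS on a QTof. Mascot identification (p<0.05), spectral counts and sequence coverage evaluated in Scaffold.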

[2] = system: Hsp90 complexes in Mia-PaCa-2 cell extract; assay: Nano-LC-MS/MS of PU-beads pull-downs; type: binding, human; details: protein identified in PU-beads pull-down of Mia-PaCa-2 cell extract; QSTAR-Elite QTof MS
In short: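 Lysates pre-cleared overnight at 4 °C with control beads underwent PU-bead pull-down; bound proteins were SDS-eluted, gel-separated, digested and analyzed by nano-LC-MS/MS on a QTof. Identifications used significance p<0.05, 0.4 Da tolerances and one missed cleavage; unique peptide (spectral) counts and sequence coverage were reported.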

Molecule | Number of Assigned Spectra, K562 Prep 1 [1] | Number of Assigned Spectra, K562 Prep 2 [1] | Number of Assigned Spectra, Mia-Paca 2 [2]
GPS2 (protein, UniProt Q13227 1-327, looked up) G protein pathway suppressor 2: MPALLERPKLSNAMARALHRHIMMERERKRQEEEEVDKMMEQKMKEEQERRKKKEMEERMSLEETKEQILKLEEKLLALQEEKHQLFLQLKKVLHEEEKRRRKEQSDLTTLTSAAYQQSLTVHTGTHLLSMQGSPGGHNRPGTLMAADRAKQMFGPQVLTTRHYVGSAAAFAGTPEHGQFQGSPGGAYGTAQPPPHYGPTQPAYSPSQQLRAPSAFPAVQYLSQPQPQPYAVHGHFQPTQTGFLQPGGALSLQKQMEHANQQTGFSDSSSLRPMHPQALHPAPGLLASPQLPVQMQPAGKSGFAATSQPGPRLPFIQHSQNPRFYHK | 5 | 0 | 0
PRCC (protein, UniProt Q92733 1-491, looked up) Proline-rich protein PRCC: MSLVAYASSDESEPDEAEPEPEEEEAVAPTSGPALGGLFASLPAPKGPALLPPPPQMLAPAFPPPLLLPPPTGDPRLQPPPPLPFGLGGFPPPPGVSPAEAAGVGEGLGLGLPSPRGPGLNLPPPIGGAGPPLGLPKPKKRKEPVKIAAPELHKGDSDSEEDEPTKKKTILQGSSEGTGLSALLPQPKNLTVKETNRLLLPHAFSRKPSDGSPDTKPSRLASKTKTSSLAPVVGTTTTTPSPSAIKAAAKSAALQVTKQITQEEDDSDEEVAPENFFSLPEKAEPPGVEPYPYPIPTVPEELPPGTEPEPAFQDDAANAPLEFKMAAGSSGAPWMPKPGDDYSYNQFSTYGDANAAGAYYQDYYSGGYYPAQDPALVPPQEIAPDASFIDDEAFKRLQGKRNRGREEINFVEIKGDDQLSGAQQWMTKSLTEEKTMKSFSKKKGEQPTGQQRRKHQITYLIHQAKERELELKNTWSENKLSRRQTQAKYGF | 2 | 0 | 0
PLBD1 (protein, UniProt Q6P4A8 39-553, looked up) Phospholipase B-like 1: GVYYATAYWMPAEKTVQVKNVMDKNGDAYGFYNNSVKTTGWGILEIRAGYGSQTLSNEIIMFVAGFLEGYLTAPHMNDHYTNLYPQLITKPSIMDKVQDFMEKQDKWTRKNIKEYKTDSFWRHTGYVMAQIDGLYVGAKKRAILEGTKPMTLFQIQFLNSVGDLLDLIPSLSPTKNGSLKVFKRWDMGHCSALIKVLPGFENILFAHSSWYTYAAMLRIYKHWDFNVIDKDTSSSRLSFSSYPGFLESLDDFYILSSGLILLQTTNSVFNKTLLKQVIPETLLSWQRVRVANMMADSGKRWADIFSKYNSGTYNNQYMVLDLKKVKLNHSLDKGTLYIVEQIPTYVEYSEQTDVLRKGYWPSYNVPFHEKIYNWSGYPLLVQKLGLDYSYDLAPRAKIFRRDQGKVTDTASMKYIMRYNNYKKDPYSRGDPCNTICCREDLNSPNPSPGGCYDTKVADIYLASQYTSYAISGPTVQGGLPVFRWDRFNKTLHQGMPEVYNFDFITMKPILKLDIK | 0 | 0 | 2
SDPR (protein, UniProt O95810 2-425, looked up) Caveolae-associated protein 2: GEDAAQAEKFQHPGSDMRQEKPSSPSPMPSSTPSPSLNLGNTEEAIRDNSQVNAVTVLTLLDKLVNMLDAVQENQHKMEQRQISLEGSVKGIQNDLTKLSKYQASTSNTVSKLLEKSRKVSAHTRAVKERMDRQCAQVKRLENNHAQLLRRNHFKVLIFQEENEIPASVFVKQPVSGAVEGKEELPDENKSLEETLHTVDLSSDDDLPHDEEALEDSAEEKVEESRAEKIKRSSLKKVDSLKKAFSRQNIEKKMNKLGTKIVSVERREKIKKSLTSNHQKISSGKSSPFKVSPLTFGRKKVREGESHAENETKSEDLPSSEQMPNDQEEESFAEGHSEASLASALVEGEIAEEAAEKATSRGSNSGMDSNIDLTIVEDEEEESVALEQAQKVRYEGSYALTSEEAERSDGDPVQPAVLQVHQTS | 0 | 0 | 4
PHB (protein, UniProt P35232 2-272, looked up) Prohibitin 1: AAKVFESIGKFGLALAVAGGVVNSALYNVDAGHRAVIFDRFRGVQDIVVGEGTHFLIPWVQKPIIFDCRSRPRNVPVITGSKDLQNVNITLRILFRPVASQLPRIFTSIGEDYDERVLPSITTEILKSVVARFDAGELITQRELVSRQVSDDLTERAATFGLILDDVSLTHLTFGKEFTEAVEAKQVAQQEAERARFVVEKAEQQKKAAIISAEGDSKAAELIANSLATAGDGLIELRKLEAAEDIAYQLSRSRNITYLPAGQSVLLQLPQ | 5 | 0 | 0
PTPLAD1 (protein, UniProt Q9P035 1-362, looked up) Very-long-chain …: MENQVLTPHVYWAQRHRELYLRVELSDVQNPAISITENVLHFKAQGHGAKGDNVYEFHLEFLDLVKPEPVYKLTQRQVNITVQKKVSQWWERLTKQEKRPLFLAPDFDRWLDESDAEMELRAKEEERLNKLRLESEGSPETLTNLRKGYLFMYNLVQFLGFSWIFVNLTVRFCILGKESFYDTFHTVADMMYFCQMLAVVETINAAIGVTTSPVLPSLIQLLGRNFILFIIFGTMEEMQNKAVVFFVFYLWSAIEIFRYSFYMLTCIDMDWKVLTWLRYTLWIPLYPLGCLAEAVSVIQSIPIFNETGRFSFTLPYPVKIKVRFSFFLQIYLIMIFLGLYINFRHLYKQRRRRYGQKKKKIH | 2 | 0 | 0
CSDE1 (protein, UniProt O75534 1-798, looked up) Cold shock domain-containing …: MSFDPNLLHNNGHNGYPNGTSAALRETGVIEKLLTSYGFIQCSERQARLFFHCSQYNGNLQDLKVGDDVEFEVSSDRRTGKPIAVKLVKIKQEILPEERMNGQVVCAVPHNLESKSPAAPGQSPTGSVCYERNGEVFYLTYTPEDVEGNVQLETGDKINFVIDNNKHTGAVSARNIMLLKKKQARCQGVVCAMKEAFGFIERGDVVKEIFFHYSEFKGDLETLQPGDDVEFTIKDRNGKEVATDVRLLPQGTVIFEDISIEHFEGTVTKVIPKVPSKNQNDPLPGRIKVDFVIPKELPFGDKDTKSKVTLLEGDHVRFNISTDRRDKLERATNIEVLSNTFQFTNEAREMGVIAAMRDGFGFIKCVDRDVRMFFHFSEILDGNQLHIADEVEFTVVPDMLSAQRNHAIRIKKLPKGTVSFHSHSDHRFLGTVEKEATFSNPKTTSPNKGKEKEAEDGIIAYDDCGVKLTIAFQAKDVEGSTSPQIGDKVEFSISDKQRPGQQVATCVRLLGRNSNSKRLLGYVATLKDNFGFIETANHDKEIFFHYSEFSGDVDSLELGDMVEYSLSKGKGNKVSAEKVNKTHSVNGITEEADPTIYSGKVIRPLRSVDPTQTEYQGMIEIVEEGDMKGEVYPFGIVGMANKGDCLQKGESVKFQLCVLGQNAQTMAYNITPLRRATVECVKDQFGFINYEVGDSKKLFFHVKEVQDGIELQAGDEVEFSVILNQRTGKCSACNVWRVCEGPKAVAAPRPDRLVNRLKNITLDDASAPRLMVLRQPRGPDNSMGFGAERKIRQAGVID | 4 | 0 | 0
STRN (protein, UniProt O43815 1-780, looked up) Striatin: MDEQAGPGVFFSNNHPGAGGAKGLGPLAEAAAAGDGAAAAGAARAQYSLPGILHFLQHEWARFEVERAQWEVERAELQAQIAFLQGERKGQENLKKDLVRRIKMLEYALKQERAKYHKLKYGTELNQGDMKPPSYDSDEGNETEVQPQQNSQLMWKQGRQLLRQYLQEVGYTDTILDVKSKRVRALLGFSSDVTDREDDKNQDSVVNGTEAEVKETAMIAKSELTDSASVLDNFKFLESAAADFSDEDEDDDVDGREKSVIDTSTIVRKKALPDSGEDRDTKEALKEFDFLVTSEEGDNESRSAGDGTDWEKEDQCLMPEAWNVDQGVITKLKEQYKKERKGKKGVKRPNRSKLQDMLANLRDVDELPSLQPSVGSPSRPSSSRLPEHEINRADEVEALTFPPSSGKSFIMGADEALESELGLGELAGLTVANEADSLTYDIANNKDALRKTWNPKFTLRSHFDGIRALAFHPIEPVLITASEDHTLKMWNLQKTAPAKKSTSLDVEPIYTFRAHKGPVLCVVMSSNGEQCYSGGTDGLIQGWNTTNPNIDPYDSYDPSVLRGPLLGHTDAVWGLAYSAAHQRLLSCSADGTLRLWNTTEVAPALSVFNDTKELGIPASVDLVSSDPSHMVASFSKGYTSIFNMETQQRILTLESNVDTTANSSCQINRVISHPTLPISITAHEDRHIKFYDNNTGKLIHSMVAHLEAVTSLAVDPNGLYLMSGSHDCSIRLWNLESKTCIQEFTAHRKKFEESIHDVAFHPSKCYIASAGADALAKVFV | 5 | 1 | 0
MALT1 (protein, UniProt Q9UDY8 2-824, looked up) Mucosa-associated lymphoid …: SLLGDPLQALPPSAAPTGPLLAPPAGATLNRLREPLLRRLSELLDQAPEGRGWRRLAELAGSRGRLRLSCLDLEQCSLKVLEPEGSPSLCLLKLMGEKGCTVTELSDFLQAMEHTEVLQLLSPPGIKITVNPESKAVLAGQFVKLCCRATGHPFVQYQWFKMNKEIPNGNTSELIFNAVHVKDAGFYVCRVNNNFTFEFSQWSQLDVCDIPESFQRSVDGVSESKLQICVEPTSQKLMPGSTLVLQCVAVGSPIPHYQWFKNELPLTHETKKLYMVPYVDLEHQGTYWCHVYNDRDSQDSKKVEIIIGRTDEAVECTEDELNNLGHPDNKEQTTDQPLAKDKVALLIGNMNYREHPKLKAPLVDVYELTNLLRQLDFKVVSLLDLTEYEMRNAVDEFLLLLDKGVYGLLYYAGHGYENFGNSFMVPVDAPNPYRSENCLCVQNILKLMQEKETGLNVFLLDMCRKRNDYDDTIPILDALKVTANIVFGYATCQGAEAFEIQHSGLANGIFMKFLKDRLLEDKKITVLLDEVAEDMGKCHLTKGKQALEIRSSLSEKRALTDPIQGTEYSAESLVRNLQWAKAHELPESMCLKFDCGVQIQLGFAAEFSNVMIIYTSIVYKPPEIIMCDAYVTDFPLDLDIDPKDANKGTPEETGSYLVSKDLPKHCLYTRLSSLQKLKEHLVFTVCLSYQYSGLEDTVEDKQEVNVGKPLIAKLDMHRGLGRKTCFQTCLMSNGPYQSSAATSGGAGHYHSLQDPFHGVYHSHPGNPSNVTPADSCHCSRTPDAFISSFAHHASCHFSRSNVPVETTDEIPFSFSDRLRISEK | 0 | 0 | 2
